Assay results as given in the supplement of paper PMC7877785.
± gives the uncertainty stated by the source.

Assay: self-splicing fitness, log relative to wild type (ln ratio); higher = more splicing; Tetrahymena group I intron in knt gene, E. coli kanamycin selection, DiMSum; sequences stand for … in CUCUCU…GGAGGGAAAAGUUAUCAGGCAUGCACCUGGUAGCUAGUCUUUAAACCAAUAGAUUGCAUCGGUUUAAAAGGCAAGACCGUCAAAUUGCGGGAAAGGGGUCAACAGCCGUUCAGUACCAAGUCUCAGGGGAAACUUUGAGAUGGCCUUGCAAAGGGUAUGGUAAUAAGCUGACGGACAUGGUCCUAACCACGCAGCCAAGUCCUAAGUCAACAGAUCUUCUGUUGAUAUGGAUGCAGUUCACAGACUAAAUGUCGGUCGGGGAAGAUGUAUUCUUCUCAUAAGAUAUAGUCGGACCUCUCCUUAAUGGGAGCUAGCGGAUGAAGUGAUGCAACACUGGAGCCGCUGGGAACUAAUUUGUAUGCGAAAGUAUAUUGAUUAGUUUUGGAGUACUCGUGGUCG
Method in brief: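 Six replicate transformations of E. coli BL21(DE3) with a pET-22b(+) library were grown overnight at 37°C or 30°C. The library randomised all eight P1ex-region intron nucleotides, the intron lying in the knt kanamycin-resistance gene, and plates were LB agar with or without 25 μg/mL kanamycin plus 100 μg/mL carbenicillin, 50 μM IPTG and 0.2% rhamnose. Pooled colonies were amplicon-sequenced on an Illumina HiSeq 2500, and fitness is the DiMSum error-weighted combination of wild-type-normalised replicate fold changes, kanamycin versus none.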

Sequence	self-splicing fitness (ln) (30 °C)	self-splicing fitness (ln) (37 °C)
CGUAAGCAAUAUUACGGGUG	-1.64 ± 0.057	-0.924 ± 0.057
CGUAAGCAAUAUUACGUAUC	-3.12 ± 0.24	-3.6 ± 0.24
CGUAAGCAAUAUUACGUCUG	-0.285 ± 0.085	0.29 ± 0.1
CGUAAGCAAUAUUACGUUAC	-3.56 ± 0.26	-2.03 ± 0.28
CGUAAGCAAUAUUACGUUCA	-1.64 ± 0.14	-0.74 ± 0.13
CGUAAGCAAUAUUACGUUCU	-1.61 ± 0.13	-0.0321 ± 0.12
CGUCAGCAAUAUUACGAACC	-1.37 ± 0.41	0.157 ± 0.37
CGUCAGCAAUAUUACGAAGU	-3.92 ± 0.19	-2.94 ± 0.21
CGUCAGCAAUAUUACGAGAG	-2.91 ± 0.15	-2.76 ± 0.25
CGUCAGCAAUAUUACGCAGU	-2.96 ± 0.2	-2.12 ± 0.18
CGUCAGCAAUAUUACGCAUA	-2.88 ± 0.32	-2.59 ± 0.19
CGUCAGCAAUAUUACGCCUU	–	-1.94 ± 0.2
CGUCAGCAAUAUUACGCGAA	-2.93 ± 0.21	-2.51 ± 0.19
CGUCAGCAAUAUUACGCGGG	-3.87 ± 0.24	-2.94 ± 0.21
CGUCAGCAAUAUUACGCUGC	-2.95 ± 0.26	-2.22 ± 0.35
CGUCAGCAAUAUUACGCUGU	-4.26 ± 0.33	-1.51 ± 0.27
CGUCAGCAAUAUUACGGAAA	-2.57 ± 0.3	-2.38 ± 0.37
CGUCAGCAAUAUUACGGACG	-3.63 ± 0.32	-1.95 ± 0.23
CGUCAGCAAUAUUACGGAUA	-1.02 ± 0.079	-0.231 ± 0.086
CGUCAGCAAUAUUACGGCCG	-0.623 ± 0.12	0.482 ± 0.15
CGUCAGCAAUAUUACGUAUU	-2.83 ± 0.13	-1.84 ± 0.14
CGUCAGCAAUAUUACGUCCA	-1.97 ± 0.085	-1.36 ± 0.11
CGUCAGCAAUAUUACGUCUC	-2.87 ± 0.24	-0.999 ± 0.14
CGUCAGCAAUAUUACGUCUG	-0.234 ± 0.062	0.106 ± 0.08
CGUCAGCAAUAUUACGUGAC	-3.29 ± 0.18	-2.82 ± 0.23

Sequence	self-splicing fitness (ln) (30 °C)	self-splicing fitness (ln) (37 °C)
CGUCAGCAAUAUUACGUGGA	-3.65 ± 0.24	-0.946 ± 0.17
CGUCAGCAAUAUUACGUGGG	-2.31 ± 0.093	-1.7 ± 0.1
CGUCAGCAAUAUUACGUUAC	-2.78 ± 0.21	-3.22 ± 0.24
CGUCAGCAAUAUUACGUUUC	-3 ± 0.14	-3.06 ± 0.21
CGUGAGCAAUAUUACGAAAC	–	-0.708 ± 0.31
CGUGAGCAAUAUUACGAAAG	-1.89 ± 0.17	-0.94 ± 0.16
CGUGAGCAAUAUUACGAAGG	-2.37 ± 0.14	-1.42 ± 0.14
CGUGAGCAAUAUUACGAUCA	-2.06 ± 0.14	-0.309 ± 0.12
CGUGAGCAAUAUUACGCGCA	-0.962 ± 0.38	-0.382 ± 0.27
CGUGAGCAAUAUUACGCGUU	-3.11 ± 0.28	-2.72 ± 0.2
CGUGAGCAAUAUUACGGACC	-2.51 ± 0.49	–
CGUGAGCAAUAUUACGGCAG	-0.858 ± 0.11	-0.441 ± 0.14
CGUGAGCAAUAUUACGGCGU	-2.44 ± 0.18	-1.32 ± 0.17
CGUGAGCAAUAUUACGGGCA	-1.6 ± 0.12	-1.63 ± 0.16
CGUGAGCAAUAUUACGGGUC	-4 ± 0.24	-2.2 ± 0.19
CGUGAGCAAUAUUACGUAAC	-3.13 ± 0.39	-2.78 ± 0.43
CGUGAGCAAUAUUACGUCCA	-2.37 ± 0.26	-2.38 ± 0.34
CGUGAGCAAUAUUACGUCUU	-2.26 ± 0.27	–
CGUGAGCAAUAUUACGUGUA	-3.18 ± 0.22	-3.91 ± 0.31
CGUGAGCAAUAUUACGUUCU	-2.74 ± 0.28	-2.2 ± 0.27
CGUGAGCAAUAUUACGUUUC	-3.19 ± 0.23	-2.23 ± 0.19
CGUUAGCAAUAUUACGAACG	-2.85 ± 0.3	-2.62 ± 0.38
CGUUAGCAAUAUUACGACAA	-1.99 ± 0.17	-1.15 ± 0.17
CGUUAGCAAUAUUACGAGGA	-2.48 ± 0.27	-2.13 ± 0.27
CGUUAGCAAUAUUACGAUAC	–	-2.64 ± 0.44

Sequence	self-splicing fitness (ln) (30 °C)	self-splicing fitness (ln) (37 °C)
CGUUAGCAAUAUUACGAUGC	-0.888 ± 0.21	-1.63 ± 0.31
CGUUAGCAAUAUUACGAUUA	-2.16 ± 0.26	-1.14 ± 0.22
CGUUAGCAAUAUUACGCCUU	-3.33 ± 0.43	-2.18 ± 0.19
CGUUAGCAAUAUUACGCUGG	-1.45 ± 0.28	-1.83 ± 0.31
CGUUAGCAAUAUUACGGCGA	-1.6 ± 0.11	-1.61 ± 0.11
CGUUAGCAAUAUUACGGGCC	-1.91 ± 0.18	-1.75 ± 0.24
CGUUAGCAAUAUUACGGUAG	-0.514 ± 0.097	-0.104 ± 0.11
CGUUAGCAAUAUUACGUAUU	-3.02 ± 0.18	-2.64 ± 0.19
CGUUAGCAAUAUUACGUGAU	-3.16 ± 0.24	-2.45 ± 0.2
CGUUAGCAAUAUUACGUGCG	-3.7 ± 0.14	-2.71 ± 0.15
CUAAAGCAAUAUUACGAGAA	-2.99 ± 0.19	-3.25 ± 0.33
CUAAAGCAAUAUUACGAUAG	0.0858 ± 0.072	0.313 ± 0.085
CUAAAGCAAUAUUACGCACU	-3.41 ± 0.2	-2.34 ± 0.32
CUAAAGCAAUAUUACGCAUU	-4.21 ± 0.21	-1.51 ± 0.14
CUAAAGCAAUAUUACGCUAU	-4.21 ± 0.31	-2.75 ± 0.3
CUAAAGCAAUAUUACGCUCG	-0.715 ± 0.12	-0.626 ± 0.15
CUAAAGCAAUAUUACGCUGG	-3.74 ± 0.22	-2.11 ± 0.25
CUAAAGCAAUAUUACGCUGU	-3.72 ± 0.29	-2.39 ± 0.21
CUAAAGCAAUAUUACGGGGC	-2.86 ± 0.36	-2.78 ± 0.28
CUAAAGCAAUAUUACGGUAC	–	-2.35 ± 0.25
CUAAAGCAAUAUUACGUAAG	-0.149 ± 0.07	-0.575 ± 0.085
CUAAAGCAAUAUUACGUAAU	-4.33 ± 0.29	-2.54 ± 0.23
CUAAAGCAAUAUUACGUAGA	-3.64 ± 0.19	-4.04 ± 0.46
CUAAAGCAAUAUUACGUAGG	-1.15 ± 0.088	-1.2 ± 0.11
CUAAAGCAAUAUUACGUAUG	-0.125 ± 0.059	0.0627 ± 0.081

Sequence	self-splicing fitness (ln) (30 °C)	self-splicing fitness (ln) (37 °C)
CUAAAGCAAUAUUACGUUGA	-4.09 ± 0.23	-2.6 ± 0.29
CUACAGCAAUAUUACGAGCG	-0.282 ± 0.076	-0.442 ± 0.1
CUACAGCAAUAUUACGAGCU	-3.01 ± 0.21	-2.19 ± 0.19
CUACAGCAAUAUUACGCAAC	-3.66 ± 0.36	-3.03 ± 0.29
CUACAGCAAUAUUACGCAAG	-2.61 ± 0.15	-1.45 ± 0.19
CUACAGCAAUAUUACGCACU	-3.52 ± 0.21	-3.03 ± 0.4
CUACAGCAAUAUUACGCAGG	-2.62 ± 0.13	-3.06 ± 0.24
CUACAGCAAUAUUACGCCGA	-2.29 ± 0.18	-3.15 ± 0.43
CUACAGCAAUAUUACGCCGC	-3.76 ± 0.22	-3.62 ± 0.39
CUACAGCAAUAUUACGCGGG	-2.27 ± 0.094	-2.56 ± 0.12
CUACAGCAAUAUUACGGAUG	-0.683 ± 0.056	-0.187 ± 0.076
CUACAGCAAUAUUACGGCAC	-3.29 ± 0.23	-2.45 ± 0.32
CUACAGCAAUAUUACGGUAA	-0.706 ± 0.066	-0.344 ± 0.076
CUACAGCAAUAUUACGGUCU	-4.27 ± 0.19	-2.13 ± 0.16
CUACAGCAAUAUUACGGUUG	-1.78 ± 0.078	-1.73 ± 0.091
CUACAGCAAUAUUACGUAUU	-4.19 ± 0.2	-2.94 ± 0.18
CUACAGCAAUAUUACGUCAG	-1.55 ± 0.12	-1.18 ± 0.13
CUACAGCAAUAUUACGUCAU	-4.33 ± 0.22	-3.72 ± 0.19
CUACAGCAAUAUUACGUCGC	-4.05 ± 0.3	-2.11 ± 0.23
CUACAGCAAUAUUACGUGCA	-3.73 ± 0.35	-2.5 ± 0.18
CUACAGCAAUAUUACGUGGC	-3.68 ± 0.29	-2.44 ± 0.32
CUACAGCAAUAUUACGUUAG	-3.78 ± 0.23	-2.54 ± 0.14
